Six substances from PMC8060872 can be followed below.

In general, Kd refers to the concentration at which binding is half-saturated. Read a low Kd as a tighter complex.

Common to all, as to assay: AUC
For assay [1], the target named is C-terminally truncated SARS-CoV main protease Δ(201–306) (SARS-CoV).
For assay [2], the target named is C-terminally truncated SARS-CoV main protease Δ(293–306) (SARS-CoV).
The target in assay [3] is N-terminally truncated SARS-CoV main protease Δ(1–4) (SARS-CoV).
The target of assay [4] is N-terminally truncated SARS-CoV main protease Δ(1–5) (SARS-CoV).
Assay [5] deals with N-terminally truncated SARS-CoV main protease Δ(1–6) (SARS-CoV).
In assay [6] the target is N-terminally truncated SARS-CoV main protease Δ(1–7) (SARS-CoV).

As for “C-terminally truncated SARS-CoV main protease Δ(201–306) (domain or fragment)”, in assay [1], the Kd was 7870 µM.

In the case of “C-terminally truncated SARS-CoV main protease Δ(293–306) (domain or fragment)”, the Kd in assay [2] is 163 µM.

Turning to “N-terminally truncated SARS-CoV main protease Δ(1–4) (domain or fragment)”, the Kd in assay [3] turned out to be 57.5 µM. This counts as double-digit micromolar.

In assay [4], “N-terminally truncated SARS-CoV main protease Δ(1–5) (domain or fragment)” yielded a Kd of 35.4 µM.

In assay [5], “N-terminally truncated SARS-CoV main protease Δ(1–6) (domain or fragment)” had a dissociation constant (Kd) of 151 µM.

The substance “N-terminally truncated SARS-CoV main protease Δ(1–7) (domain or fragment)” displayed a Kd in assay [6] of 357 µM.
